In patent publication US20230416388A1 (Bristol-Myers Squibb, published 2023):

T1: human GITR (on activated human T cells) (human, UniProt Q9Y5U5 26-241)
T1 construct: also called glucocorticoid-inducible TNF receptor; TNFRSF18
T1 sequence: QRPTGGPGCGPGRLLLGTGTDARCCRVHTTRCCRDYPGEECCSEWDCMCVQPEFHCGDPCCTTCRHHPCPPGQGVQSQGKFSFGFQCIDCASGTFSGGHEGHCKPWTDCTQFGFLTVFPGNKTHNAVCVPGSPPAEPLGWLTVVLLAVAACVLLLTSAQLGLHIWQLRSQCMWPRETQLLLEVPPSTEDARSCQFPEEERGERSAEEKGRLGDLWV


Legend:
[1] = biological target: mouse GITR (on activated mouse T cells) (mouse) (UniProt O35714); experiment: in vitro binding on activated mouse CD4+ T cells
mouse GITR (on activated mouse T cells) (mouse), sequence (O35714 20-228): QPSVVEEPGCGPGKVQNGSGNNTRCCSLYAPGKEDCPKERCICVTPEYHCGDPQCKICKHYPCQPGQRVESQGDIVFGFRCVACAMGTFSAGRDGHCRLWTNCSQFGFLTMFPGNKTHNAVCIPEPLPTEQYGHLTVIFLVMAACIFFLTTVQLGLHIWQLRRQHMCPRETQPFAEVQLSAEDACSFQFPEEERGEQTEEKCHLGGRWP

[2] = biological target: mouse GITR (on activated mouse T cells) (mouse) (UniProt O35714); experiment: in vitro binding on activated mouse CD8+ T cells
[3] = biological target: T1, human GITR (on activated human T cells); experiment: in vitro binding on activated human CD8+ T cells
[4] = biological target: T1, human GITR (on activated human T cells); experiment: in vitro binding on activated human CD4+ T cells

Molecule	EC50 [1] [nM]	EC50 [2] [nM]	EC50 [3] [nM]	EC50 [4] [nM]
DTA1-mIgG2b (antibody)	0.33	0.33	–	–
DTA1-mIgG2a (antibody)	0.14	0.17	–	–
28F3.IgG1 (antibody, V domains shown, Fully human IgG1 agonist antibody to GITR; also called GITR Ab; anti-GITR agonist Ab 28F3.IgG1) VH: QVQLVESGGGVVQPGRSLRLSCAASGFTFSSYGMHWVRQAPGKGLEWVAVIWYEGSNKYYADSVKGRFTISRDNSKNTLYLQMNSLRAEDTAVYYCARGGSMVRGDYYYGMDVWGQGTTVTVSS VL: AIQLTQSPSSLSASVGDRVTITCRASQGISSALAWYQQKPGKAPKLLIYDASSLESGVPSRFSGSGSGTDFTLTISSLQPEDFATYYCQQFNSYPYTFGQGTKLEIKR	–	–	0.44	0.37
